The source of these data is paper PMC5874916.

The target in assay [1] is purified recombinant eEF1A1 (OriGene), biotinylated (UniProt P68104). As to the kind of experiment: BLI; Octet Red; biotinylated eEF1A1 immobilised on streptavidin-coated biosensors, 90 nM RTp51/p66 heterodimer; kinetic buffer 1 mM phosphate, 15 mM NaCl, 0.002% Tween 20, 0.1 mg/ml gelatin.
Assay [2] has the same target. As to the kind of experiment: BLI. Particulars: biotinylated eEF1A immobilized on a streptavidin-coated biosensor, 90 nM RT heterodimer, E300R in both RTp51 and RTp66 subunits.
The target in assay [3] is HaloTag-eEF1A (UniProt P68104). The assay can be described thus: FRET or BRET; NanoBRET in HEK293T cells cotransfected with 5 ng RTp66-NanoLuc (donor) and 500 ng HaloTag-eEF1A (acceptor), HaloTag NanoBRET 618 Ligand; BRET ratio of the RSV P-NanoLuc control subtracted, normalized to WT RT. In general terms: BRET reads energy transfer from a luciferase to a nearby fluorophore.
Sequence of HaloTag-eEF1A (P68104 whole entry): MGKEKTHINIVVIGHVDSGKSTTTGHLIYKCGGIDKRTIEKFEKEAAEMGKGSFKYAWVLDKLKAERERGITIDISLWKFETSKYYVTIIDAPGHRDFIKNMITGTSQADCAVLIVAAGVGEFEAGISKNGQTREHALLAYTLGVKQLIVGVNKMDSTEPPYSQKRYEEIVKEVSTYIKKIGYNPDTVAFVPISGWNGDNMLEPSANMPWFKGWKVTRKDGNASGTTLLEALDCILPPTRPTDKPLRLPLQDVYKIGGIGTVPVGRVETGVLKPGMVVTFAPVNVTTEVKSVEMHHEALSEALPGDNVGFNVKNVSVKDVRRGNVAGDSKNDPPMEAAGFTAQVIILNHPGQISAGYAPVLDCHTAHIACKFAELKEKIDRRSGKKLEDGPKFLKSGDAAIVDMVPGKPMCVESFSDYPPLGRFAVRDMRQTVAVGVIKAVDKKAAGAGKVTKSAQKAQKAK

The target in assay [4] is HaloTag-eEF1A (UniProt P68104). As to the kind of experiment: NanoBRET. Particulars: HEK293T cells cotransfected; n = 3; parent: est. 100; read off a plot.
Assay [5] has as its target HIV-1 reverse transcriptase (Human immunodeficiency virus 1) (UniProt O93215). Particulars: cited from earlier work.

pKd: −log10 of the molar value.

Sequence of purified recombinant eEF1A1 (OriGene), biotinylated (P68104 whole entry): as above
Sequence of eEF1A (P68104 2-462): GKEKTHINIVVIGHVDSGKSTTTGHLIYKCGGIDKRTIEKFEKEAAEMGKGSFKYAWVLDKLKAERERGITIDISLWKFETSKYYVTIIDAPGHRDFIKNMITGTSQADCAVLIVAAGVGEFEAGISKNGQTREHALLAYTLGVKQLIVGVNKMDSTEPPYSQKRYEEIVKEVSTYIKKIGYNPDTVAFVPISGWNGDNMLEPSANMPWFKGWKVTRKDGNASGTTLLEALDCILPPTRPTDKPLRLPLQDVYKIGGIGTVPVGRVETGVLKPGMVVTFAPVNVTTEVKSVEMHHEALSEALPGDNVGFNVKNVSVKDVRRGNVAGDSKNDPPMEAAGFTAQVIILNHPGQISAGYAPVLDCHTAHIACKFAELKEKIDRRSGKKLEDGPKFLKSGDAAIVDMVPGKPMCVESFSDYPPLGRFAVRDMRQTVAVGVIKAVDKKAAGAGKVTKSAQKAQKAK

For “6xHis-tagged E300R mutant RTp51/p66 heterodimer purified from E. coli (complex)”, in assay [1], the fold change of koff against the WT heterodimer is 3 fold and the fold weaker binding affinity (KD) than the WT heterodimer came out at 3 fold. On to “6xHis-tagged WT RTp51/p66 heterodimer purified from E. coli (from UniProt P04585) E300R”, for which the pKd in assay [2] (parent: 3.4787 ± 0.079) was 7.99. The koff in assay [2] (parent: 4.75E-4 ± 2.5E-5) worked out at 0.00139 s⁻¹. The kon in assay [2] (parent: 136350 ± 4150) is 135000 1/MS. As to HIV-1 RTp66-NanoLuc, D250R (enzyme), the percent reduction of the BRET ratio against WT RT with HaloTag-eEF1A [3] came to 33%. Take HIV-1 RTp66-NanoLuc, E297R (enzyme): the percent reduction of the BRET ratio against WT RT with HaloTag-eEF1A [3] is 20%. On the same count and under the same terms, to HIV-1 RTp66-NanoLuc, E298R (enzyme) belongs 40%; to HIV-1 RTp66-NanoLuc, E300R (enzyme), 70%. HIV-1 RTp66-NanoLuc, wild type L303A: the percent of parent with HaloTag-eEF1A [4] amounted to 43 % WT. Turning to eEF1A (from UniProt P68104), the pKd in assay [5] is 8.46.

The term pKd denotes −log10 of the Kd, conventionally taken in molar units. Broadly, the koff is a measure of how fast the partners let go of each other. As usually defined, the kon is the second-order rate constant of association.
